Experimental findings from patent US20240301031A1 (JIANGSU HENGRUI PHARMACEUTICALS, published 2024) are described below.

Like-named read-outs stand apart in the source and are kept apart here.

The target of assay [1] is T1, human BAFF (10056-HNCH, Sino biological) (human, UniProt Q9Y275 134-285).
T1 construct: Bought protein
Description: ELISA, BAFF coated, fusion protein titrated. How it is done: (§1) The binding activity of the antibodies or fusion proteins for BAFF, APRIL, and IL-12/23 p40 was assayed by the ELISA method (coating an antigen protein). The specific procedures were as follows:
(§2) A BAFF (Sino biological, 10056-HNCH), APRIL (R&D Systems, 5860-AP-010/CF), or IL-12/23 p40 (Sino biological, 10052-H08H) protein was diluted to 1 μg/mL with a PBS (BasalMedia, B320) buffer at pH 7.4, and added to a 96-well microplate (Corning, 3590) at 100 μL/well. The plate was incubated at 4° C. overnight. After the liquid was discarded, 300 μL of 5% skim milk (BD, 232100) diluted with PBS was added to each well for blocking, and the plate was incubated at 37° C. for 2 h. After the blocking was completed, the blocking solution was discarded, and the plate was washed 3 times with a PBST buffer (PBS at pH 7.4 containing 0.1% tween-20). 100 μL of test antibody or fusion protein solution diluted in a gradient was added to each well, and the plate was incubated at 37° C. for 1 h. After the incubation was completed, the plate was washed 3 times with PBST. […] The plate was washed 3 times with PBST. 100 μL of TMB chromogenic substrate (KPL, 5120-0077) was added to each well, and the plate was incubated at room temperature for 10-15 min. The reaction was stopped by adding 50 μL of 1 M H₂SO₄ to each well. The plate was read for absorbance values at 450 nm on a microplate reader, the binding curves of the antibodies to an antigen were fitted with software, and the EC₅₀ values were calculated.
On the technique in general: An ELISA detects its analyte on a solid surface through an enzyme-linked reagent.

Assay [2] concerns the target T1, human BAFF (10056-HNCH, Sino biological). Description: competition ELISA: biotin-labeled BAFF to coated BAFF-R. How it is done: The blocking activity of the antibodies and the fusion proteins for receptors and ligands such as BAFF/BAFF-R, BAFF/BCMA, BAFF/TACI, APRIL/BCMA, APRIL/TACI, and p40/IL-12R1 was assayed by the ELISA method. The specific procedures were as follows:
A receptor protein was diluted to 2 μg/mL with PBS at pH 7.4 (BasalMedia, B320) and added to a 96-well microplate (Corning, 3590) at 100 μL/well. The plate was incubated at 4° C. overnight. After the liquid was discarded, 200 μL of 1% Casein blocking solution (Thermo, 37528) was added to each well for blocking, and the plate was incubated at 37° C. for 2 h. After the blocking was completed, the blocking solution was discarded, and the plate was washed 3 times with a PBST buffer (PBS at pH 7.4 containing 0.1% tween-20) for later use. A biotin-labeled ligand protein at a fixed concentration was mixed with the antibody or fusion protein diluted in gradient, pre-incubated at 37° C. for 30 min, and added to a blocked microplate. The plate was incubated at 37° C. for 1.5 h. After the incubation was completed, the plate was washed 3 times with PBST. 100 μL of streptavidin-HRP (Invitrogen, 434323, diluted at a ratio of 1:4000) was added to each well, and the plate was incubated at 37° C. for 1 h. The supernatant was removed, and the plate was washed 3 times with PBST. 100 μL of TMB chromogenic substrate (KPL, 5120-0077) was added to each well, and the plate was incubated at room temperature for 10-15 min. The reaction was stopped by adding 50 μL of 1 M H₂SO₄ to each well. The plate was read for absorbance values at 450 nm on a microplate reader, the curves for the inhibition of the binding of the ligands to the receptors were fitted with software, and the IC₅₀ values were calculated.

For assay [3] the target is unchanged. Description: ELISA, BAFF coated, fusion protein titrated. The protocol: as §1, §2
The source holds these as a separate data set.

B1: TACI-17Fc (Fc fusion)
chain: SCRKEQGKFYDHLLRDCISCASICGQHPKQCAYFCEDKTHTCPPCPAPEAEGAPSVFLFPPKPKDTLMISRTPEVTCVVVDVSHEDPEVKFNWYVDGVEVHNAKTKPREEQYNSTYRVVSVLTVLHQDWLNGKEYKCKVSNKALPSSIEKTISKAKGQPREPQVYTLPPSRDELTKNQVSLTCLVKGFYPSDIAVEWESNGQPENNYKTTPPVLDSDGSFFLYSKLTVDKSRWQQGNVFSCSVMHEALHNHYTQKSLSLSPGK
notes: Fused directly to Fc; two identical polypeptides
With B1, the EC50 (in general, the concentration at which the effect is half-maximal) in assay [1] is 0.996 nM. Besides, in assay [2], the 50% inhibitory concentration (IC50) (commonly the concentration that inhibits the measured activity by half) worked out at 2.82 nM.

B2: TACI-16Fc (Fc fusion)
chain: LSCRKEQGKFYDHLLRDCISCASICGQHPKQCAYFCEDKTHTCPPCPAPEAEGAPSVFLFPPKPKDTLMISRTPEVTCVVVDVSHEDPEVKFNWYVDGVEVHNAKTKPREEQYNSTYRVVSVLTVLHQDWLNGKEYKCKVSNKALPSSIEKTISKAKGQPREPQVYTLPPSRDELTKNQVSLTCLVKGFYPSDIAVEWESNGQPENNYKTTPPVLDSDGSFFLYSKLTVDKSRWQQGNVFSCSVMHEALHNHYTQKSLSLSPGK
notes: as for B1
In turn, B2 gave a concentration giving a half-maximal response (EC50) in assay [1] of 0.599 nM. Further, the IC50 in assay [2] worked out at 2.22 nM.

B3: TACI-18Fc (Fc fusion)
chain: CRKEQGKFYDHLLRDCISCASICGQHPKQCAYFCEDKTHTCPPCPAPEAEGAPSVFLFPPKPKDTLMISRTPEVTCVVVDVSHEDPEVKFNWYVDGVEVHNAKTKPREEQYNSTYRVVSVLTVLHQDWLNGKEYKCKVSNKALPSSIEKTISKAKGQPREPQVYTLPPSRDELTKNQVSLTCLVKGFYPSDIAVEWESNGQPENNYKTTPPVLDSDGSFFLYSKLTVDKSRWQQGNVFSCSVMHEALHNHYTQKSLSLSPGK
notes: as for B1
B3 showed an EC50 in assay [1] of 0.992 nM. For the same molecule, the IC50 in assay [2] worked out at 3.26 nM.

B4: TACI-9-5Fc (Fc fusion)
chain: SLSCRKEQGEFYDHLLRDCISCASICGQHPKQCAYFCENKLDKTHTCPPCPAPEAEGAPSVFLFPPKPKDTLMISRTPEVTCVVVDVSHEDPEVKFNWYVDGVEVHNAKTKPREEQYNSTYRVVSVLTVLHQDWLNGKEYKCKVSNKALPSSIEKTISKAKGQPREPQVYTLPPSRDELTKNQVSLTCLVKGFYPSDIAVEWESNGQPENNYKTTPPVLDSDGSFFLYSKLTVDKSRWQQGNVFSCSVMHEALHNHYTQKSLSLSPGK
notes: two identical polypeptides
For B4, in assay [3], the EC50 turned out to be 0.146 nM. That is a sub-nanomolar value.

B5: TACI-9-12Fc (Fc fusion)
chain: STSCRKEQGKFYDHLLRDCISCASICGQHPKQCAAFCENKLDKTHTCPPCPAPEAEGAPSVFLFPPKPKDTLMISRTPEVTCVVVDVSHEDPEVKFNWYVDGVEVHNAKTKPREEQYNSTYRVVSVLTVLHQDWLNGKEYKCKVSNKALPSSIEKTISKAKGQPREPQVYTLPPSRDELTKNQVSLTCLVKGFYPSDIAVEWESNGQPENNYKTTPPVLDSDGSFFLYSKLTVDKSRWQQGNVFSCSVMHEALHNHYTQKSLSLSPGK
notes: two identical polypeptides
In assay [3], B5 gave an EC50 of 0.122 nM.

B6: TACI-9-13Fc (Fc fusion)
chain: STSCRKEQGKFYDHLLRDCISCASICGQHPKQCAYYCENKLDKTHTCPPCPAPEAEGAPSVFLFPPKPKDTLMISRTPEVTCVVVDVSHEDPEVKFNWYVDGVEVHNAKTKPREEQYNSTYRVVSVLTVLHQDWLNGKEYKCKVSNKALPSSIEKTISKAKGQPREPQVYTLPPSRDELTKNQVSLTCLVKGFYPSDIAVEWESNGQPENNYKTTPPVLDSDGSFFLYSKLTVDKSRWQQGNVFSCSVMHEALHNHYTQKSLSLSPGK
notes: two identical polypeptides
B6 showed a concentration for a half-maximal effect (EC50) in assay [3] of 0.433 nM.

B7: TACI-9-11Fc (Fc fusion)
chain: SLSCSEEQGEFYDHLLRDCISCASICGQHPKQCAYFCENKLDKTHTCPPCPAPEAEGAPSVFLFPPKPKDTLMISRTPEVTCVVVDVSHEDPEVKFNWYVDGVEVHNAKTKPREEQYNSTYRVVSVLTVLHQDWLNGKEYKCKVSNKALPSSIEKTISKAKGQPREPQVYTLPPSRDELTKNQVSLTCLVKGFYPSDIAVEWESNGQPENNYKTTPPVLDSDGSFFLYSKLTVDKSRWQQGNVFSCSVMHEALHNHYTQKSLSLSPGK
notes: two identical polypeptides
Take B7: a half-maximal response in assay [3] (EC50) required 0.195 nM. Against the preceding molecule, the EC50 is about 2.2-fold lower.

B8: TACI-9-6Fc (Fc fusion)
chain: SRSCRKEQGKFYDHLLRTCISCASICGQHPKQCAYFCENKLDKTHTCPPCPAPEAEGAPSVFLFPPKPKDTLMISRTPEVTCVVVDVSHEDPEVKFNWYVDGVEVHNAKTKPREEQYNSTYRVVSVLTVLHQDWLNGKEYKCKVSNKALPSSIEKTISKAKGQPREPQVYTLPPSRDELTKNQVSLTCLVKGFYPSDIAVEWESNGQPENNYKTTPPVLDSDGSFFLYSKLTVDKSRWQQGNVFSCSVMHEALHNHYTQKSLSLSPGK
notes: two identical polypeptides
B8 gave an EC50 in assay [3] of 0.367 nM.

B9: TACI-9-7Fc (Fc fusion)
chain: SRSCRKEQGKFYDHLLRACISCASICGQHPKQCAYFCENKLDKTHTCPPCPAPEAEGAPSVFLFPPKPKDTLMISRTPEVTCVVVDVSHEDPEVKFNWYVDGVEVHNAKTKPREEQYNSTYRVVSVLTVLHQDWLNGKEYKCKVSNKALPSSIEKTISKAKGQPREPQVYTLPPSRDELTKNQVSLTCLVKGFYPSDIAVEWESNGQPENNYKTTPPVLDSDGSFFLYSKLTVDKSRWQQGNVFSCSVMHEALHNHYTQKSLSLSPGK
notes: two identical polypeptides
In assay [3], B9 gave an EC50 of 0.727 nM.

B10: TACI-9-14Fc (Fc fusion)
chain: STSCRKEQGKFYDHLLRDCISCASICGQHPKQCAAYCENKLDKTHTCPPCPAPEAEGAPSVFLFPPKPKDTLMISRTPEVTCVVVDVSHEDPEVKFNWYVDGVEVHNAKTKPREEQYNSTYRVVSVLTVLHQDWLNGKEYKCKVSNKALPSSIEKTISKAKGQPREPQVYTLPPSRDELTKNQVSLTCLVKGFYPSDIAVEWESNGQPENNYKTTPPVLDSDGSFFLYSKLTVDKSRWQQGNVFSCSVMHEALHNHYTQKSLSLSPGK
notes: two identical polypeptides
As to B10, the response in assay [3] was half-maximal at 0.223 nM (EC50). Compared with the last molecule, the EC50 is about 3.3-fold lower.

B11: TACI-9-9Fc (Fc fusion)
chain: SRSCRKEQGKFYDHLLRTCISCASICGQHPKQCARFCENKLDKTHTCPPCPAPEAEGAPSVFLFPPKPKDTLMISRTPEVTCVVVDVSHEDPEVKFNWYVDGVEVHNAKTKPREEQYNSTYRVVSVLTVLHQDWLNGKEYKCKVSNKALPSSIEKTISKAKGQPREPQVYTLPPSRDELTKNQVSLTCLVKGFYPSDIAVEWESNGQPENNYKTTPPVLDSDGSFFLYSKLTVDKSRWQQGNVFSCSVMHEALHNHYTQKSLSLSPGK
notes: two identical polypeptides
B11 came in with an EC50 in assay [3] of 0.937 nM.

B12: TACI-9-8Fc (Fc fusion)
chain: SLSCRKEQGKFYDHLLRDCISCASICGQHPKQCAAFCENKLDKTHTCPPCPAPEAEGAPSVFLFPPKPKDTLMISRTPEVTCVVVDVSHEDPEVKFNWYVDGVEVHNAKTKPREEQYNSTYRVVSVLTVLHQDWLNGKEYKCKVSNKALPSSIEKTISKAKGQPREPQVYTLPPSRDELTKNQVSLTCLVKGFYPSDIAVEWESNGQPENNYKTTPPVLDSDGSFFLYSKLTVDKSRWQQGNVFSCSVMHEALHNHYTQKSLSLSPGK
notes: two identical polypeptides
For the molecule B12, it took 0.2 nM to reach a half-maximal effect in assay [3] (EC50). Against the preceding molecule, the EC50 is about 4.7-fold lower.

B13: TACI-19Fc (Fc fusion)
chain: RKEQGKFYDHLLRDCISCASICGQHPKQCAYFCEDKTHTCPPCPAPEAEGAPSVFLFPPKPKDTLMISRTPEVTCVVVDVSHEDPEVKFNWYVDGVEVHNAKTKPREEQYNSTYRVVSVLTVLHQDWLNGKEYKCKVSNKALPSSIEKTISKAKGQPREPQVYTLPPSRDELTKNQVSLTCLVKGFYPSDIAVEWESNGQPENNYKTTPPVLDSDGSFFLYSKLTVDKSRWQQGNVFSCSVMHEALHNHYTQKSLSLSPGK
notes: as for B1
Consider B13, for which the EC50 in assay [1] was found to be 4.99 nM. Further, the IC50 in assay [2] came out at 2220 nM.

B14: TACI-20Fc (Fc fusion)
chain: KEQGKFYDHLLRDCISCASICGQHPKQCAYFCEDKTHTCPPCPAPEAEGAPSVFLFPPKPKDTLMISRTPEVTCVVVDVSHEDPEVKFNWYVDGVEVHNAKTKPREEQYNSTYRVVSVLTVLHQDWLNGKEYKCKVSNKALPSSIEKTISKAKGQPREPQVYTLPPSRDELTKNQVSLTCLVKGFYPSDIAVEWESNGQPENNYKTTPPVLDSDGSFFLYSKLTVDKSRWQQGNVFSCSVMHEALHNHYTQKSLSLSPGK
notes: as for B1
In assay [1], B14 showed a concentration for a half-maximal effect (EC50) of 7.19 nM. Also, the IC50 in assay [2] worked out at 2360 nM.
